Measurements published in article doi:10.1101/2021.12.02.470928.

Legend:
Test in all cases: BLI
[1] = target: biotinylated MYC(1-88 F23A)
[2] = target: biotinyl-MB0 peptide (MYC 16-33) (UniProt P01106)
[3] = target: biotinylated MYC(1-88 P21A)
[4] = target: biotinylated MYC(1-88 Y22A)
[5] = target: biotinylated MYC(1-88 Y24A)
[6] = target: biotinylated MYC(1-88ΔMB0) (UniProt P01106)

B1: PNUTS(1-148), PNUTS amino-terminal domain (PAD) (domain or fragment)
chain: MGSGPIDPKELLKGLDSFLNRDGEVKSVDGISKIFSLMKEARKMVSRCTYLNILLQTRSPEILVKFIDVGGYKLLNNWLTYSKTTNNIPLLQQILLTLQHLPLTVDHLKQNNTAKLVKQLSKSSEDEELRKLASVLVSDWMAVIRSQS
[1]
  fold weakening of KD against wild-type MYC(1-88): > 5 fold
[2]
  Kd: 9.4 µM
[3]
  fold weakening of KD against wild-type MYC(1-88): > 5 fold
[4]
  fold weakening of KD against wild-type MYC(1-88): > 5 fold
[5]
  fold weakening of KD against wild-type MYC(1-88): > 5 fold
[6]
  Kd: > 100 µM
